# Where a chain is given by its changes, count along the chain named. Names and notes keep the numbering of the source.
# B1: XccBphP R525E-R527E full-length variant, apoprotein (natural protein)
# chain: STATNPLDLDVCAREPIHIPGLIQPYGVLLVIDPADGRIVQASTTAADLLGVPMAALLGMPYTQVLTLPEAQPFAVDDQPQHLMHAEVRFPQRATPPASAWVAAWHLYPQQWLVEMEPRDARLLDVTLREAMPLLRSVERDPGIAEAAVRVAKGLRSLIGFDRVMIYRFDEEWNGDIIAEARKPELEAYLGLHYPASDIPAQARALYLRNRVRQIADVGYQPSPIQPTVHPQLGTPVDLSDVSLRSVSPVHLEYLANMGVTATLVASIVVNDALWGLISCHHYSPHFTNHAMRDVTDAVARTLAGRIGALQAVARARLESVLLTVREKLITDFNDAEHMTVELLDDMAPDLMDVVDADGVAIFHGNDISRHGTTPDVAALRRIRDHIESEHHEALREDAVGALHVDAIGEVFPELADLAPLAAGFIFVPLMPQSRSALLWTRREQIQQIKWAGNPQLAKLEDIPNSRLSPRKSFDLWQQTVRGRARRWSPLHLESARSLRVLIELMERKRFQQDFTLLEASLSELEDGVAIIERGTANAAHRLLFVNTAFADVCGSDVAELIGRELQTLYASDAPRANVELLQDALRNGRAAYVTLPLQVSDGAPVYRQFHLEPLPSPSGVTAHWLLQLRDPE
# B2: XccBphP wild-type full-length bacteriophytochrome, apoprotein (natural protein)
# chain: B1 chain with E524R, E526R
# B3: XccBphP G454A variant, apoprotein (natural protein)
# chain: B1 chain with G453A, E524R, E526R
# B4: XccBphP F512P variant, apoprotein (natural protein)
# chain: B1 chain with F511P, E524R, E526R
# B5: XccBphP G454E full-length variant, holoprotein (biliverdin-bound) (natural protein)
# chain: B1 chain with G453E, E524R, E526R
# modifications: biliverdin IXα (BV) covalently bound to Cys13 (thioether linkage)
# B6: XccBphP G454A variant, holoprotein (biliverdin-bound) (natural protein)
# chain: B1 chain with G453A, E524R, E526R
# modifications: biliverdin IXα (BV) covalently bound to Cys13 (thioether linkage)
# B7: XccBphP G454E full-length variant, apoprotein (natural protein)
# chain: B1 chain with G453E, E524R, E526R
# B8: XccBphP W452A-G454E variant, apoprotein (natural protein)
# chain: B1 chain with W451A, G453E, E524R, E526R
# B9: XccBphP W478A variant, apoprotein (natural protein)
# chain: B1 chain with W477A, E524R, E526R
# B10: XccBphP A453E variant, apoprotein (natural protein)
# chain: B1 chain with A452E, E524R, E526R
# Experiments:
# A0A0H2 = assay: SEC-MALS
# SEC-MALS = target: the molecule itself; assay: SEC-MALS
# crystal structure = target: the molecule itself; assay: crystal structure
# SEC = target: the molecule itself; assay: SEC
protein,measurement,setting,value
B1,percent monomer (main peak),A0A0H2,Monomer (~85%)
same,percent dimer (secondary peak),SEC-MALS,~15%
same,stoichiometry N,SEC-MALS,2
B2,stoichiometry N,SEC-MALS,2
B3,stoichiometry N,SEC-MALS,2
B4,stoichiometry N,SEC-MALS,2
B5,binding result,crystal structure,binds
B6,binding result,SEC,binds
B7,stoichiometry N,SEC-MALS,2
B8,stoichiometry N,SEC-MALS,2
B9,stoichiometry N,SEC-MALS,2
B10,stoichiometry N,SEC-MALS,2

# Reference: article PMC8612531 (Science Advances, 2021)
